The record followed here is patent US20160207991A1 (Pfizer, published 2016).

Broadly, the Kd is the free concentration of one partner at which half of the binding sites on the other are occupied at equilibrium, for simple one-to-one binding. The koff is the first-order rate constant of dissociation. As a reminder, the kon is the rate constant with which the complex forms. Read a high kon as fast association.

Residue numbers refer to the chain shown, from its start.

Assay [1] concerns the target T1, human brain-derived neurotrophic factor (BDNF) (human, UniProt P23560 129-247).
T1 construct: In the HTRF assays the BDNF was biotinylated; also called hBDNF; human BDNF
T1 sequence: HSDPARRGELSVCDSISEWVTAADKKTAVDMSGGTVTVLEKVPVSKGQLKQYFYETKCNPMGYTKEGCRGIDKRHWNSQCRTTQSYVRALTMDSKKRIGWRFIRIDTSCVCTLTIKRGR
Nature of the assay: SPR, Biacore T200; immobilised human BDNF; 37 C. On the technique in general: SPR reads the build-up and loss of mass on a sensor chip optically.
Procedure: (§1) All SPR experiments were performed at 37° C. and a data collection rate of 1 Hz with HBS-EP+ used as both the sample and running buffer. The resulting sensorgrams were double referenced with buffer injections and a non-derivatized flow cell surface. Rate constants were determined by applying a 1:1 Langmuir binding model using the T200 evaluation software v1.0 and the equation KD=kd/kₐ.

In assay [2] the target is T1, human brain-derived neurotrophic factor …. Nature of the assay: cell-based or functional assay.
The target of assay [3] is T2, endogenous rat BDNF in plasma (rat, UniProt P23363 131-249, limits assumed).
T2 construct: also called endogenous BDNF
T2 sequence (looked up): T1 sequence
Nature of the assay: ligand-binding assay (Gyrolab) for total BDNF in plasma of dosed rats.
Procedure: Sample concentrations were determined by interpolation from a standard curve that was fitted using a 5-parameter logistic curve fit with 1/y² response weighting.

The target in assay [4] is T1, human brain-derived neurotrophic factor …. Nature of the assay: competition HTRF (Example 12): 1 nM biotinylated human BDNF, europium cryptate labelled H1, SA-XL665, unlabelled antibody titrated; competitor: labelled H1; x axis is log10 of pM by the text.
Procedure: Reagents were added sequentially on the MiniTrak Liquid Handling Platform (Perkin-Elmer) into 384-well low volume black plates (Nunc).
In assay [5] the target is T3, recombinant human neurotrophin-3 (human, UniProt P20783 139-257).
T3 construct: also called NT3; NT-3
T3 sequence (looked up): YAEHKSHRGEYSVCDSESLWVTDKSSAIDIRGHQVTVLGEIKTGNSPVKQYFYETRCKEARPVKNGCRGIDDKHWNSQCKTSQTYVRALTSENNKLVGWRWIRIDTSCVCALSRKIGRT
Nature of the assay: ELISA (Example 14, conditions of Example 7): plate coated with 1 µg/ml of the antigen, antibody at the highest concentration of the titration, anti-IgG-HRP, TMB.

Assay [6] concerns the target T4, recombinant human beta-NGF (human, UniProt P01138 122-241).
T4 construct: also called β-NGF; Nerve Growth Factor
Described as above.

The target in assay [7] is T5, recombinant human CXCL13 (human, UniProt O43927 23-109).
T5 sequence (looked up): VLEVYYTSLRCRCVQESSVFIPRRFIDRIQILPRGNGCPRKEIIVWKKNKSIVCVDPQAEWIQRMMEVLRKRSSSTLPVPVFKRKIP
The description is as above.

Assay [8] addresses T6, recombinant human neurotrophin-4 (human, UniProt P34130 81-210).
T6 construct: also called NT4; NT-4
T6 sequence (looked up): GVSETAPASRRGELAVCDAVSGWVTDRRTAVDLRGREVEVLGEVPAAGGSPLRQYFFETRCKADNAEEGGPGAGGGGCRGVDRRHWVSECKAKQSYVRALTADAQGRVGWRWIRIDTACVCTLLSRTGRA
The assay is described as above.

Another assay deals with T7, recombinant CXCL3 (Homo sapiens (Human), UniProt P19876 35-107).
T7 sequence: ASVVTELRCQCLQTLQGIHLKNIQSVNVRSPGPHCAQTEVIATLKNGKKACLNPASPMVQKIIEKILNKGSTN
The assay is described as above.

The target in assay [9] is T8, recombinant human CXCL9 (human, UniProt Q07325 23-125).
T8 sequence (looked up): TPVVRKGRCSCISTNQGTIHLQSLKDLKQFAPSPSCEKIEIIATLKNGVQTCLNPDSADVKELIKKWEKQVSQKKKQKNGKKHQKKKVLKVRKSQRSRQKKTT
The assay is described as above.

Assay [10] has as its target T9, recombinant human CXCL10 (human, UniProt P02778 22-98).
T9 sequence (looked up): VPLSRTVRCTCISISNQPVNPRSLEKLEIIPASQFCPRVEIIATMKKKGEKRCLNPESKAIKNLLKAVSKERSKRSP
The assay is described as above.

The target in assay [11] is T10, p75NTR receptor (immobilised on the SPR flow cell) (Homo sapiens (Human), UniProt P08138 29-250).
T10 construct: also called p75 neurotrophic receptor; LNGFR
T10 sequence: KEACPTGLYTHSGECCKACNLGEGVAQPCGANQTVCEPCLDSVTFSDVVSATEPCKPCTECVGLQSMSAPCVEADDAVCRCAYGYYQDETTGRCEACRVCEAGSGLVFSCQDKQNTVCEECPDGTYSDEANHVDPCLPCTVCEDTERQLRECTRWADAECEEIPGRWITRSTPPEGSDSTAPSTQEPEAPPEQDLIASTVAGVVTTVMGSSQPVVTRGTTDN
The assay is described as above.

For assay [12], the target named is T3, recombinant human neurotrophin-3. Nature of the assay: ELISA (Example 7): plate coated with 1 µg/ml of the antigen, antibody at the highest concentration of the titration, anti-IgG-HRP, TMB. A general note: ELISA stands for enzyme-linked immunosorbent assay.
Procedure: (§2) NUNC plates were coated with 1 μg/ml of a neurotrophin or chemokine in 1×PBS overnight. […] Plates were washed and a 1/5000 dilution of anti-IgG-HRP (horse radish peroxidase) in blocking buffer was added for 1 h (100 μL total volume). Plates were washed and developed by addition of 3,3′,5,5′-Tetramethylbenzidine (TMB) substrate and subsequently stopped with phosphoric acid.
Assay [13] addresses T4, recombinant human beta-NGF. The description is as above.
Procedure: as §2
Assay [14] addresses T5, recombinant human CXCL13. The assay is described as above.
Procedure: as §2
Assay [15] has as its target T6, recombinant human neurotrophin-4. The assay is described as above.
Procedure: as §2
For assay [16], the target named is T8, recombinant human CXCL9. The description is as above.
Procedure: as §2
The target in assay [17] is T9, recombinant human CXCL10. Described as above.
Procedure: as §2
Assay [18] addresses T10, p75NTR receptor (immobilised on the SPR …). Described as above.
Procedure: as §2
Assay [19] has as its target T1, human brain-derived neurotrophic factor …. Nature of the assay: SPR, Biacore T200; human BDNF amine-coupled to CM5, antibody injected; 1:1 Langmuir; 37 C.
Procedure: as §1
The dissociation phase for the highest concentration of antibody was extended to 4000 seconds to achieve a signal decay minimum of 5%. The kinetic rate constants were determined using a Langmuir 1:1 binding model and T200 evaluation software v1.0.
Assay [20] shares this target. Nature of the assay: SPR, Biacore T200; immobilised human BDNF; 37 C (same data as Table 10).
Procedure: as §1

T4 sequence (P01138 122-241 limits assumed): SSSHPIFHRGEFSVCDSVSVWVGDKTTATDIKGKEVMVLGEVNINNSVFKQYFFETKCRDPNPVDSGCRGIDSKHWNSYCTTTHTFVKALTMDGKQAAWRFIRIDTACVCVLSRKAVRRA

B1: humanised affinity matured anti-BDNF antibody B30 (antibody, V domains shown)
VH: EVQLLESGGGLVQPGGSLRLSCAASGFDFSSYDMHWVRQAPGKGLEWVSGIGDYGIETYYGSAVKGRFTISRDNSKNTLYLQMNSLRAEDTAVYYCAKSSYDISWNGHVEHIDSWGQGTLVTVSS
VL: SSELTQPPAVSVALGQTVRITCSGAGSGYGYGWYQQKPGQAPVTVIYSNDKRPSGIPDRFSGSSSGNTASLTITGAQAEDEADYYCGTYVSAYYGYAIFGGGTKLTVL
Molecule B1 yielded a Kd in assay [1] of 0.12 nM. Besides, in assay [1], the “T1/2” value was determined as 5.58 h. This molecule had a koff in assay [1] of 3.5e-05 s⁻¹. This molecule returned a kon in [1] of 290000 M⁻¹ s⁻¹. In assay [2], the “PathHunter pTrkB assay in U2OS TrkB/p75NTR cells, 300 pM BDNF” value (“PathHunter pTrkB assay” below) was determined as 0.54 nM. For the same molecule, the “pERK assay in U2OS TrkB/p75NTR cells, 150 pM BDNF” value (“pERK assay” below) in assay [2] came out at 1.3 nM. Besides, the binding result in assay [3] is “binds”; in assay [5] it was “no binding (tested: 300 µg/mL)”; in [6], “no binding (tested: 300 µg/mL)”; with recombinant human CXCL13 [7], “no binding (tested: 300 µg/mL)”; in assay [8], “no binding (tested: 300 µg/mL)”; with recombinant CXCL3 it was “no binding (tested: 300 µg/mL)”. In addition, the binding result (with recombinant human CXCL9 [9]; in the assay with recombinant human CXCL10 [10]; in assay [11]) was “no binding (tested: 300 µg/mL)” each time. Besides, the “IC50 (read off the curve)” value in assay [4] was approximately 1 nM.

B2: humanised affinity-optimized anti-BDNF antibody B18 (antibody, V domains shown)
VH: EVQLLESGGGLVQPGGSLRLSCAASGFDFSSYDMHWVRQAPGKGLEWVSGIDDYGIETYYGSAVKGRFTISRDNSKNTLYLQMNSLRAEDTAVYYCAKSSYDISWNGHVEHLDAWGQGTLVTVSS
VL: B1 VL with S23Q, A25D, G26S, S48G, N49K, D50N, K51N
Molecule B2 yielded a Kd in assay [1] of 0.0994 nM. The “T1/2” value in assay [1] amounted to 7.03 h. For the same molecule, in [1], the koff came out at 2.8e-05 s⁻¹. Also, in [1], the kon turned out to be 290000 M⁻¹ s⁻¹. The “PathHunter pTrkB assay” value in [2] is 0.29 nM. For the same molecule, in [2], the “pERK assay” value was found to be 0.95 nM. For the same molecule, the “IC50 (read off the curve)” value in assay [4] was approximately 0.6 nM. In addition, the binding result (in assay [5]; in [6]; in the assay with recombinant human CXCL13 [7]; in assay [8]; with recombinant CXCL3; in the assay with recombinant human CXCL9 [9]) was “no binding (tested: 300 µg/mL)” each time. Moreover, the binding result (with recombinant human CXCL10 [10]; in assay [11]) was “no binding (tested: 300 µg/mL)” in each case.

B3: humanised affinity-optimized anti-BDNF antibody B20 (antibody, V domains shown)
VH: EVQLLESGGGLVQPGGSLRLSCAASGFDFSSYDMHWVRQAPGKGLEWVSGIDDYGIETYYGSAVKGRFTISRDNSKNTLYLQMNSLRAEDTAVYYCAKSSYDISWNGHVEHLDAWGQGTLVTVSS
VL: B1 VL with V90D, A92T, Y93D, Y94A
In the case of B3, the equilibrium dissociation constant (Kd) in assay [1] stood at 0.55 nM. Also, the “T1/2” value in assay [1] came to 1.26 h. For the same molecule, the koff in [1] was determined as 0.000154 s⁻¹. The kon in assay [1] is 280000 M⁻¹ s⁻¹. The “PathHunter pTrkB assay” value in [2] came to 0.31 nM. In [2], the “pERK assay” value was found to be 1.1 nM. The “IC50 (read off the curve)” value in assay [4] was approximately 1 nM. The binding result (in assay [5]; in assay [6]; in the assay with recombinant human CXCL13 [7]; in assay [8]; with recombinant CXCL3; with recombinant human CXCL9 [9]) was “no binding (tested: 300 µg/mL)” each time. Further, the binding result (in the assay with recombinant human CXCL10 [10]; in [11]) was “no binding (tested: 300 µg/mL)” each time.

B4: anti-BDNF antibody R3BH1 (chicken-human chimeric IgG) (antibody, V domains shown)
VH: AVTLDESGGGLQTPGGGLSLVCKASGFDFSSYDMHWVRQAPGKGLEWVAGIDDGGSDTYYGSAVKGRATISRDNGQSTVRLQLNNLRAEDTGTYYCAKSSYDISWNGHVENIDAWGHGTEVIVSS
VL: ALTQPTSVSTNLGGTVEITCSGAGSGYGYGWFQQKSPGSAPVTVIYSNDKRPSDIPSRFSGSKSGSTGTLTITGVQAEDEAVYFCGTYDSTDAGYAIFGAGTTLTVL
notes: also called R3BH1 IgG; chimeric R3BH1
Turning to B4, the binding result (in assay [12]; in assay [13]; with recombinant human CXCL13 [14]; in [15]; in the assay with recombinant human CXCL9 [16]; with recombinant human CXCL10 [17]) was “no binding (tested: 300 µg/mL)” throughout. Moreover, the figures for the binding result in assay [18] and in assay [3] were “no binding (tested: 300 µg/mL)” and “binds”, respectively. For the same molecule, the Kd in assay [19] and in assay [20] was 34.4 nM in each case. Also, the “T1/2” value in [19] and in [20] was 1.13 min each time. Further, the koff in assay [19] and in assay [20] was 0.0103 s⁻¹ in each case. Moreover, the kon was 303000 M⁻¹ s⁻¹ in assay [19] and 300000 M⁻¹ s⁻¹ in assay [20].
